Consider three molecules from publication PMC4552016, “The Rsb Phosphoregulatory Network Controls Availability of the Primary Sigma Factor in Chlamydia trachomatis and Influences the Kinetics of Growth and Development” (PLoS Pathogens, 2015).

T1: σ^66, recombinant purified, amine-coupled SPR ligand (Chlamydia trachomatis, UniProt P18333 1-571)
T1 construct: Sigma66 (RpoD) of Chlamydia trachomatis, cloned from serovar D/UW/CX genomic DNA; may be the same construct as m12 (GST-σ66); also called Sigma66; RpoD; source: PC2 E. coli, pGEX-derived vector, purified
T1 sequence (looked up): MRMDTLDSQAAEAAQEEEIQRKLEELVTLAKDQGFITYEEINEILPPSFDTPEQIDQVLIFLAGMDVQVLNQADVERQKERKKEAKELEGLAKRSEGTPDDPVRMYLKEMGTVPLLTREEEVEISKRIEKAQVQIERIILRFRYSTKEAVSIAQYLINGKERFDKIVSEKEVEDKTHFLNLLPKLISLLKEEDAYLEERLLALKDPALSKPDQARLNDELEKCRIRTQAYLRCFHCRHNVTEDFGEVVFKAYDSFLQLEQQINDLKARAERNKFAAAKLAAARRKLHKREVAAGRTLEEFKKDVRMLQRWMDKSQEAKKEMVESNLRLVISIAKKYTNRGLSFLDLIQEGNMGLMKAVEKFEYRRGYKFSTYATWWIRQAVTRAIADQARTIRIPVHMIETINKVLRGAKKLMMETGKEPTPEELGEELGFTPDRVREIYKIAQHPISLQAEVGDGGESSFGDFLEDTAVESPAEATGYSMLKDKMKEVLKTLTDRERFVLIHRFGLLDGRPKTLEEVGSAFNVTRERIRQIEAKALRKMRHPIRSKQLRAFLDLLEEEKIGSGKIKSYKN

B1: RsbV1 S56A (natural protein)
chain: MSNFQKEEQGQTGILHLQGKLDGVSSPAVQESISESLSNGMKNIILDCGDLDYISAAGIRVLLQSYHQVGKNAGKIALTSVSKTVEQTLYVTGFLSYFKVFDSVNEALQALAKENS
notes: RsbV1 of Chlamydia trachomatis (serovar D/UW/CX) with the phospho-accepting serine 56 changed to alanine; also called alanine derivative of RsbV1; source: PC2 E. coli, pGEX-derived vector (site directed mutagenesis), purified
B2: RsbV2 S55A (natural protein)
chain: MEWIAREYKNIFIVSLKGDMDAVTVPALEEFLTKSIAKGRVNVLLNMEKVFYMSAAGLRTLLSLAKLTQNHNGKLCICCLRDEVADIIRIAGLDKVITIRKAEQESFSDF
notes: RsbV2 of Chlamydia trachomatis (serovar D/UW/CX) with the phospho-accepting serine 55 changed to alanine; also called alanine derivative of RsbV2; source: PC2 E. coli, pGEX-derived vector (site directed mutagenesis), purified
B3: RsbWCt, recombinant purified (SPR analyte) (natural protein, Chlamydia trachomatis, UniProt O84553 1-146, looked up)
chain: MTFSEGEQVFPATLQDLYPMLDFVKRAGVHCNCTQKKLSKLELACEELLLNIITHAYKGLPSTGWIRILCTETPDALLVRITDHGPAFNPITASPDIMRLDLPIEQRRIGGLGIFLAKYSVDVFDYERVNDTNVVTLTLYTKPHNS
notes: RsbW of Chlamydia trachomatis, cloned from serovar D/UW/CX genomic DNA; also called CT549; source: PC2 E. coli, pGEX-derived vector, purified

Experiment [1] concerns the target B3. Kind of experiment: SPR; RsbV1, RsbV2 or their S-to-A / S-to-D derivatives immobilized on CM5 chip, RsbWCt analyte (2500nM for the wild-type ligands) with ATP, first and repeated injections; empty reference flow cell; 10mM HEPES, 150mM NaCl, 1mM MgCl2, 30°C. Particulars: both partners purified. In general terms: Surface plasmon resonance follows binding to a sensor surface in real time, without labels.

Experiment [2] concerns the target T1, σ^66, recombinant purified, …. The experiment is described as follows: SPR; Biacore 3000, CM5 chip; σ66, σ28 and σ54 amine-coupled to consecutive flow cells, RsbWCt analyte at various concentrations; reference flow cell with immobilized GST; Req as percent of theoretical Rmax; 10mM HEPES, 150mM NaCl, 1mM MgCl2, 30°C. Particulars: both partners purified.

As to B1, in experiment [1], the binding result was “binds”.

For the molecule B2, in experiment [1], the binding result was “binds”.

B3: the binding result in experiment [2] is “binds”.
